# Test results: US20080219999A1
# Biological target: Rhinovirus serotype HRV-39 (human rhinovirus 39)
# Assay: cell-based or functional assay
substance,measurement,value
"IC1-5D/IgA (ICAM/IgA fusion, gift of Dr. Tim Springer; Martin, et al., 1993) (from UniProt P05362 28-480; P01876 103-353) (Fc fusion)","IC50, cytopathic effect (CPE) assay on HeLa S3 cells",0.12 µg/mL
same,"fold lower IC50 than soluble ICAM-1, CPE assay on HeLa S3 cells",11.3 fold
soluble human ICAM-1 (from UniProt P05362 28-480),"IC50, cytopathic effect (CPE) assay on HeLa S3 cells",1.35 µg/mL
